In paper PMC11544177 (Acta Pharmaceutica Sinica. B, 2024):
Blank lines part the entries; values can stand above or below the molecule they belong to.

Legend:
[1] = biological target: T1, mitochondrial acetyl-CoA acetyltransferase 1 (ACAT1) (Homo sapiens, UniProt P24752); assay: SPR; assay type: binding
T1 sequence (P24752 34-427): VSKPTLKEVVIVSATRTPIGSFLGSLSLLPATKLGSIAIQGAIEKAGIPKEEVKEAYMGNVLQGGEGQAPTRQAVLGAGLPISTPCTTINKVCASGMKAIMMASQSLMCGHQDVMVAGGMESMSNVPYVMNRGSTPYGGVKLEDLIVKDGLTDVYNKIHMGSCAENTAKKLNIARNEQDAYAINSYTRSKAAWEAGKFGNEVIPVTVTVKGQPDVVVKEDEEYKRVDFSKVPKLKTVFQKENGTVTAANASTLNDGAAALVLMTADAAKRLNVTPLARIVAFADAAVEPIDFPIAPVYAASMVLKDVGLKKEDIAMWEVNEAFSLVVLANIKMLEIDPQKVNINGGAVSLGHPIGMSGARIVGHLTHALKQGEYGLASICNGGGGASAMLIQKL

[2] = biological target: mitochondrial acetyl-CoA acetyltransferase 1 (ACAT1), purified recombinant human, His-tagged (human) (UniProt P24752); assay: cryo-EM structure
[3] = biological target: mitochondrial acetyl-CoA acetyltransferase 1 (ACAT1), purified recombinant human, His-tagged (human) (UniProt P24752); assay: native gel or EMSA
[4] = biological target: mitochondrial acetyl-CoA acetyltransferase 1 (ACAT1), purified recombinant human, His-tagged (human) (UniProt P24752); assay: negative-stain electron microscopy
[5] = biological target: the molecule itself; assay: native gel or EMSA

Kd [1]: ~2.58 µM
Molecule: O=C(/C=C/c1ccc(O)c(O)c1)O[C@@H]1C[C@](O)(C(=O)O)C[C@@H](O)[C@H]1O [CGA, Chlorogenic acid]

stoichiometry N [2]: 4 | stoichiometry N [3]: 4 | stoichiometry N [4]: 4
Molecule: mitochondrial acetyl-CoA acetyltransferase 1 (ACAT1), purified recombinant human, His-tagged (from UniProt P24752 34-427) (enzyme)

B1: ACAT1, endogenous in A375 human melanoma cells (enzyme, human (endogenous in A375), UniProt P24752 34-427, looked up)
chain: T1 sequence (P24752 34-427)
stoichiometry N [5]: 4
